The results in this text go back to article PMC9028814.

The test concerns the target Acid-solubilized type I bovine collagen (bovine) (UniProt P02453). The experiment in a line: SPR. In general terms: SPR reads the build-up and loss of mass on a sensor chip optically.
Chain of UniProt P02453 (P02453 162-1217, chain 1 of 2): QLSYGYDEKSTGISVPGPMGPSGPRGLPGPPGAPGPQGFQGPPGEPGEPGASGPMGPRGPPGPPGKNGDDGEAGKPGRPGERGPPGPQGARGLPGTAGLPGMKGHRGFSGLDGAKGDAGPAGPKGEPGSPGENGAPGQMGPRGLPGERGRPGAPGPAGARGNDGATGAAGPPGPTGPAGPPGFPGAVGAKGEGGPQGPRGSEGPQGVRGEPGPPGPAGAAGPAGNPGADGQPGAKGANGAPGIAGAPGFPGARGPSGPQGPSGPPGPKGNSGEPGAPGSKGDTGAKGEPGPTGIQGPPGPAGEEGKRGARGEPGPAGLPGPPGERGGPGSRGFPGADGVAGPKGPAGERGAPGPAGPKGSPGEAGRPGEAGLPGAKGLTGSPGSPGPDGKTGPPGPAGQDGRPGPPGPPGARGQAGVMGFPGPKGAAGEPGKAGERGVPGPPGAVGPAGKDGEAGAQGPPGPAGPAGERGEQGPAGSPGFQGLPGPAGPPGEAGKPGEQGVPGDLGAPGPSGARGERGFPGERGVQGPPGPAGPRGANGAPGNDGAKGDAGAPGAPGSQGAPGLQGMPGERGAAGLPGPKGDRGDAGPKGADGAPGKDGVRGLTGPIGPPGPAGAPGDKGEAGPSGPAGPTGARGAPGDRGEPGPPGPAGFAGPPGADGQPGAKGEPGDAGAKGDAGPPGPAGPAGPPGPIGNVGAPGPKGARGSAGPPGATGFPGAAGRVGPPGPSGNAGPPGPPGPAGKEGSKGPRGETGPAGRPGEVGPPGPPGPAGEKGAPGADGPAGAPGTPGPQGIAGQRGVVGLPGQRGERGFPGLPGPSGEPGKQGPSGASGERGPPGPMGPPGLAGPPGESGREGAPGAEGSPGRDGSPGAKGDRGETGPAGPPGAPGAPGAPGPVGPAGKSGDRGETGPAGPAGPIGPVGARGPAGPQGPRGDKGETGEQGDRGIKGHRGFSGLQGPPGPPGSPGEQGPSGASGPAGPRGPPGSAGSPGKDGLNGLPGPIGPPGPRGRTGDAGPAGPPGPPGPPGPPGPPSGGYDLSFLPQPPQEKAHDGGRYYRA
Chain of UniProt P02453 (P02465 80-1117, chain 2 of 2, further chain): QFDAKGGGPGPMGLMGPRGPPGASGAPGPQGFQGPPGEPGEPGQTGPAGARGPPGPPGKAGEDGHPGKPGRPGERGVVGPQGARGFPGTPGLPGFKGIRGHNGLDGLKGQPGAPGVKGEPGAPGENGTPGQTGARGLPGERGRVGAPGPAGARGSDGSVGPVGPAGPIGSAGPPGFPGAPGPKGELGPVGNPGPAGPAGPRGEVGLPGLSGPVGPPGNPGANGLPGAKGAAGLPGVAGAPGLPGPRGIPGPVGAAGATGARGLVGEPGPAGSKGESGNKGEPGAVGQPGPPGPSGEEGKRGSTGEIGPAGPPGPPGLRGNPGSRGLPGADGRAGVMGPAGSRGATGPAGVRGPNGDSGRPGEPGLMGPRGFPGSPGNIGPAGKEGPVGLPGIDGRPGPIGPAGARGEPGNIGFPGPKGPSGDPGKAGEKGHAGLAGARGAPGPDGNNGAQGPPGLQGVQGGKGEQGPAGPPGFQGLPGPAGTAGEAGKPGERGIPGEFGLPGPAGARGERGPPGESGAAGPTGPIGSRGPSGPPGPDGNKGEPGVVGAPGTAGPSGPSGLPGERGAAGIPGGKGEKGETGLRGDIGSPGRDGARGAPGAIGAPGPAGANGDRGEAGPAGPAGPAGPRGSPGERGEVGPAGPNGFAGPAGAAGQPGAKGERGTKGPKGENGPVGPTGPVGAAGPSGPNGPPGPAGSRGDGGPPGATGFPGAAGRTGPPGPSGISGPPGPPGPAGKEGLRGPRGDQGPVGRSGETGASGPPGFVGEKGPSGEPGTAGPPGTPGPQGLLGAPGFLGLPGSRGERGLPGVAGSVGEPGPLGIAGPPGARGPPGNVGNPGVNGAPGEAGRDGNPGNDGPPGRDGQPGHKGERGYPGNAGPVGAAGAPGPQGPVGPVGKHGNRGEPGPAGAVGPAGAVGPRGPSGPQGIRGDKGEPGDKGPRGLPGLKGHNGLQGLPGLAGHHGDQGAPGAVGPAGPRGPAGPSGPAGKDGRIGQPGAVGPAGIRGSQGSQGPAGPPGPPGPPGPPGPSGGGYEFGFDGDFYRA

For the substance “Human plasma von Willebrand factor (from UniProt P04275 764-2813) (natural protein)”, the koff is 0.00073 s⁻¹.
As for “Recombinant wild type von Willebrand factor (from UniProt P04275 764-2813) (natural protein)”, the koff stood at 0.000932 s⁻¹ and the on-rate constant (kon) stood at 2.36e+06 M⁻¹ s⁻¹.

In general, koff refers to the first-order rate constant of dissociation. As usually defined, the kon is the second-order rate constant of association. A high value points to faster complex formation.
